Data on 12 molecules can be found in paper PMC5345052, “Auto-phosphorylation Represses Protein Kinase R Activity” (Scientific Reports, 2017).

The target in data set [1] is PKR RNA-binding domain with C-terminal split Venus V1 tag. The experiment in a line: split Venus fluorescence complementation in HEK293 cells. Particulars: 20 ng/well of each plasmid construct; n = 5; parent: est. 2.9; read off a plot.
Data set [2] addresses truncated PKR kinase domain with N-terminal split Venus V2 tag (UniProt P19525). The data set is described as above. Particulars: 20 ng/well of each plasmid construct, read off a plot.
The target in data set [3] is truncated phosphor-transfer mutant PKR kinase domain (KD-K296R) with N-terminal split Venus V2 tag (UniProt P19525). The data set is described as above. Particulars: 20 ng/well of each plasmid construct; partner kinase domain carries K296R; n = 5; parent: est. 3.0; read off a plot.
The target in data set [4] is T1, truncated phosphor-transfer mutant PKR kinase domain (KD-K296R) with N-terminal split Venus V2 tag, P19525.
T1 chain: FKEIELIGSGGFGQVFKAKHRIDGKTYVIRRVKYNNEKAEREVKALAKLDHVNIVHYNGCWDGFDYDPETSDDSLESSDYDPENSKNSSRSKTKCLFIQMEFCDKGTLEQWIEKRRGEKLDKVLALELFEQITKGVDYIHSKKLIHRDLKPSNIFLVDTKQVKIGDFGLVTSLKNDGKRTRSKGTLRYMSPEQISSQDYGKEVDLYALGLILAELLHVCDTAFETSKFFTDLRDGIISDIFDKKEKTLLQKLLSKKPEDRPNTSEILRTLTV
Described as above. As to conditions: chain shown with the change; 20 ng/well of full-length PKR and 30 ng/well of the truncated KD; partner kinase domain carries K296R; n = 7; parent: est. 4.2; read off a plot.

Data set [5] concerns the molecule itself. The experiment in a line: liquid chromatography; recombinant PKR isolated during purification as separate monomer and dimer species.
The target of data set [6] is T2, kinase-dead PKR (K296R), recombinant His-tagged full-length protein kinase R (human), P19525.
T2 chain: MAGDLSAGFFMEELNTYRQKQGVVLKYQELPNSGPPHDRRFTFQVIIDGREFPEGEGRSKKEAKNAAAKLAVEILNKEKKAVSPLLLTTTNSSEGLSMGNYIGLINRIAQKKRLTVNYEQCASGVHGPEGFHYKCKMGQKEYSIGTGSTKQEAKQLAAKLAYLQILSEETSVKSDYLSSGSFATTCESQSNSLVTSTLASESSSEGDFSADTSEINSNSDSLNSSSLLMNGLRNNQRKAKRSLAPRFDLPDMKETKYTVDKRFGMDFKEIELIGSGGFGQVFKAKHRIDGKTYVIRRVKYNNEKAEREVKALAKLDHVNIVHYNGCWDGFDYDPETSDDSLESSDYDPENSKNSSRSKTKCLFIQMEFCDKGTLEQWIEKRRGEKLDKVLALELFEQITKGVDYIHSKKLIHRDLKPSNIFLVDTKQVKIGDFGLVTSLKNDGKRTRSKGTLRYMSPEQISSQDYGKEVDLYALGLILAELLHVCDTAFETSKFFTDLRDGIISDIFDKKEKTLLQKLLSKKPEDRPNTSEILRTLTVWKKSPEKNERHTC
The description is as above. Particulars: remark: other sources report otherwise.

Where [7] appears, read: 5 μM 2-aminopurine (2AP), n = 6, parent: est. 3.8.

Where a chain is given by its changes, count along the chain named. Numbers in names are those of the source.

As for “truncated PKR kinase domain with N-terminal split Venus V2 tag (from UniProt P19525) K296R”, the response in data set [1] amounted to 3.
In the case of “PKR RNA-binding domain with C-terminal split Venus V1 tag S33E; T42E”, the response turned out to be 3.1 in data set [2] (setting [7]); 2.5 in data set [2] (n = 7, parent: est. 2.9); 2.6 in data set [3].
Regarding “PKR RNA-binding domain with C-terminal split Venus V1 tag S33A; T42A”, the response in data set [2] (setting [7]) amounted to 4.3; in data set [2] (n = 7, parent: est. 2.9), 2.9; in data set [3], 3.5.

B1: full-length PKR with N-terminal split Venus V1 tag, P19525 H37R; S33A; T42A (protein)
chain: T2 chain with S33A, H37R, T42A, R296K
In the case of B1, the response in data set [4] worked out at 21.

B2: full-length PKR with N-terminal split Venus V1 tag, P19525 H37R (protein)
chain: T2 chain with H37R, R296K
With B2, the response in data set [4] came to 3.8.

B3: PKR K296R-S33E-T42E, recombinant His-tagged full-length protein kinase R (enzyme, human, UniProt P19525 1-551, looked up)
chain: T2 chain with S33E, T42E
notes: protein kinase R (PKR), human, full-length molecule with K296R and the phosphor-mimetic S33E and T42E; also called triple mutant; source: isolated by liquid chromatography as monomer and as dimer
Turning to B3, the “stoichiometry N” value in data set [5] came out at 2.

B4: full-length PKR with N-terminal split Venus V1 tag, P19525 S33E; T42E; R262D (protein)
chain: T2 chain with S33E, T42E, R262D, R296K
In the case of B4, the response in data set [4] was 12.

B5: full-length PKR with N-terminal split Venus V1 tag, P19525 H37R; S33E; T42E (protein)
chain: T2 chain with S33E, H37R, T42E, R296K
Take B5: the response in data set [4] was 3.1.

B6: full-length PKR with N-terminal split Venus V1 tag, P19525 S33E; T42E; K261D (protein)
chain: T2 chain with S33E, T42E, K261D, R296K
With B6, in data set [4], the response stood at 3.6.

B7: full-length PKR with N-terminal split Venus V1 tag, P19525 K261D (protein)
chain: T2 chain with K261D, R296K
B7: the response in data set [4] is 3.4.

B8: kinase-dead PKR (K296R), recombinant His-tagged full-length protein kinase R, P19525 1-551 (enzyme)
chain: T2 chain
For the molecule B8, in data set [6], the stoichiometry N was 2.

B9: full-length PKR with N-terminal split Venus V1 tag, P19525 R262D (protein)
chain: T2 chain with R262D, R296K
On to B9, for which, in data set [4], the response was 13.

As a reminder, the stoichiometry N is the number of molecules, sites or subunits per partner or assembly.
